Laboratory results taken from a protein production outcome set (Wang et al. 2014).

Assay: label from the status in PepcDB records

Row | Sequence | protein production
1 | VDAGRGAEHDEAVTSDDSASVEVPRRATPADAATVAQMLHDFNTEFGAPTPGTDELASRLSHLLAGEDVVVLLAGEPPTGLAVLSFRPNVWYPGPVAILDELYVRPGRRGHRLGSALLAASCGLVRSRGGALLEINVDGEDTDARRFYEARGFTNTEPNGTEPMLYYYREL | not failed
2 | MSYVLLLLGFALLIKGADFFVDGSSSIARLLNVSPLLIGLTIVAFGTSSPEATASIIAALNGNPDVALGNVIGSNMFNITLVVGLTALLSPLIVTNATLRKEIPFTLLASIALYIFINDQMIEGAVESTLSRSEGLILLLIFCVFLYYIFEVARTSPREQKIVQDFAIKPTWRKNIFLSILGLAMIIGGGELVIRHSTAIAFSHGMSETLVGLTIVAIGTSLPELVTSLTAALKKESEIALGNIVGSSIFNIFFVLGTAATITPMHVDSRVVVDLLLLIFLTLLLLVFSRTRYTVGKYEGLILASFYIGYMVYIIWRN | failed
3 | MSLALQYFKALSDETRLRLIHVLNRHELSVNELVSILEMGQSRVSRHLKILTGAGLLTSRRDGLWVFYSAAAEGDGRAFLDAVTPFVTTDMVLQADLDMAQKIIEERALKTRQFFNAIAEDWDELNREVLGGFDLAGAVAEAMPQCETAVDLGCGTGSVIERMLQRSQQVIGVDGSPRMLELARRRFVEGAERVSLRIGELDHLPLRDGEADFASINMVLHHLSDPGVALGEIRRVLRLGGQLMVTDFDRHDNERMRSDYGDRWLGFEGVQLEGLLREAGFTVRECRRQGVAKGLALHLMLAEKTQQ | failed
4 | MDHPFNQMRLKLTTELLLDLGSLKPEHIITPRIATDEELSLIHSYDYIQAIRRASHGILNLQEAKKYGLDGDDTLQFRRMHQHSARIVGGALNLADAIMDKSVKNGCHLGGGLHHSLPGRANGFCIYNDVAITIAYLIKHYNQRVLCIDTDAHHGDGTQWSFYTEDQALIYSIHETGKFLFPGSGHYTERGNEQGFGYTVNIPLEPYTEDSSYLEVFKQTIEPIIASFKPDIIVSVHGVDVHYLDPLTHMSCTLNTLYQIPYIIKSLADTYTNGKVMMFGGGGYNIWKVVPRAWSHVFLALEHHHHHH | not failed
5 | MFIIIGDLIAFVISVLVTLIIASVPVWVAAKIVAKRSTFGQAVAATLLSLIIFFILLFVFSIFTPFIGGIFGFIGALWVFRKVYNIGWVDSLALTIIAIFIAIMIYIILGAFLFPVIHTSMIHEHAVVTSIIV | failed
6 | MEYETILKLFSLVYIIIMMTIDFWIFGLILRREYVRVKGLLIILSIVLMMGLESLALAQLNVLLFISGMLLVLIPLFISFLIKDHSINVNRNWKYGLLLSSVIVFDELAMGYLYGNYFTPLPNPLLTAINNPAYGAMMLGDAIFFLYILRRRSIMEFAITTFAISMAFMPSLYLMDRMLEFIMSILTSLFMIVNIVLLYLTEMRMLTFQGQLVAISLSLFNLLMMLGLTFFASLSNLYFLTLSMIASMVWYFFLIFYNVPAKKISPKPFLFLVLVNLTELAMGFGESVLGFNLTNSLFVNTMNCEMMIGSHMMRSPFNNPFWWLFPINPLTMITMTIMKYNLLGKLVMVPFMTIMTTTMAPFYVIMMGAEMSYLVYERFKKVKTRYLKAWTLGILTGIPIFVVLIPYYTNYYIFGMSGMIFPVTLAPFVISLVVIALFSTLFGRGVYCNLVCMSAHMWSNVFYEQFSAKKNSKFWDYLRWIFLVPLIIAFYLFVMMGLGKIKLPIDPLDFYGMFTLNYIWWFFYFLTPIFGIYSCARQGWCGFGTFNGIFNKVLFKIRAKDVNTCKECVSKECDTSCPVKIPISNDILKKGYSNRISCIVCARCVDACDNVEIVNVVTILKNRESKSF | failed
7 | MLNAIKFRIYPNAQQKELISKHFGCSRVVYNYFLDYRQKQYAKGIKETYFTMQKVLTQIKRQEKYHYLNECNSQSLQMALRQLVSAYDNFFSKRARYPKFKSKKNAKQSFAIPQNIETKTETQTIALPKFKEGIKAKLHRDLPKDSVIKQAFISCIADQYFCSLSYETKEPIPKPTIIKKAVGLDMGLRTLIVTSDKIGYPHIRFYQKLEKKLTKAQRRLSKKVKDSNNRKKQAKKVSRLHLACSNTRDDYLHKISNEITNQYDLIGVETLNVKALMRTYHSKSLANASWGKFLTMLEYKAQRKGKTLLSIDRFFPSSQLCSYCGVNTGKKHESITKFTCPHCQTTHHRDYNASVNIRNYALGMLDDRHKVKTDKARVGIIRSDYTHHTNECVKACGASSNGVSSKYGNILDLASYGAMKQEKAQSL | failed
8 | MSHIQRETSCSRPRLNSNLDADLYGYRWARDNVGQSGATIYRLYGKPNAPELFLKHGKGSVANDVTDEMVRLNWLTAFMPLPTIKHFIRTPDDAWLLTTAIPGKTAFQVLEEYPDSGENIVDALAVFLRRLHSIPVCNCPFNSDRVFRLAQAQSRMNNGLVDASDFDDERNGWPVEQVWKEMHKLLPFSPDSVVTHGDFSLDNLIFDEGKLIGCIDVGRVGIADRYQDLAILWNCLGEFSPSLQKRLFQKYGIDNPDMNKLQFHLMLDEFF | not failed
9 | MFITTEGINAGYTIKDVVEATSSLMLASEDIDKYNMFDQLFDEAKQKLKKKADLLEGDGIIGLKYNTEVVEVNGAPKFLVVHGYGTVILIDK | not failed
10 | MAGAAHRLMEARMRRYDNKFARISDIDINQPESWRGRIFLTFDIDWAADFVLQDTIDLIEGAGVCATWFATHSTPLLENIRRNPLFELGVHPNFNPLLAGAHAEGVQEILDRTLELAPGCVSVRSHSLVQATSILNMFGERRLRYDCNILVPWDAGIVLQPWRHWTGDMVRVPYLWEDDVACLYDWEFDSTFDYWYQPDGINVLDFHPIHVYMNTESLRRYEDSREVHRNPVDLIRWRNTSAGSRTFLQSLLARNI | not failed
11 | IEEVYEATLDAIQGALNCDRASILLFDEAGTMRFVAARGLSEHYQRAVDGHSPWITGANEPEPIFVENVDDAEFSRELKESIVGEGIAALGFFPLVTEGRLIGKFMTYYDRPHRFADSEIGMALTIARQLGFSIQRMRAEYARRQAEE | not failed
12 | MNYPKAILLSLALLAMHSLNAEVVTYPAGVGVKTLNDFSVEVRQGSGPWLPVDVYPVKVDRVDEKGHNVEVASIAYFDFDGMVDVRVISNKERVNSVRVRPLSYKITPDCVGDTVTFSLSRPRNLSVEVNGDIFHNLHLFANPIDKFRPSDKEIQRALKKKKGSNLIYFGPGVHNLPNDTLFVPSGTTVYIDGGARVYGNIFTEGAHDVNIFGRGEVHPDGRGAGVWVRRSKNVRIDGIVVSQLPIGQCDSVELTNVKSISYYGWGDGMDVFSSSNVILDGVFCRNSDDCAAVYASTQGFKGGSNNVLVKNATLWADVAHPINIGGHGDPNGMDTVQNVTFRNIDILDQAEKQIDYQGCLAINPGDNTLVRNITFENIRIEDFRNGQLVNFRISFNPKYCVSTGRGIQNVLVKDVTYNGSGENLSIIAGYDENHKISGIRFVNLVVNGRKITDDMPGKPKWYKTGDMAGIFVGEHVENLSFE | failed
13 | MTRLIQAIFILGFAAFVACTPKSAKSFAKAEVQYKQAEYQHAIENYQQSLSEGGDVAQCNYYIAESYRRSNRIQEAEPFYKKAIEAGIKDEEAHFFYANALKSVGNYEGAATQYKQYIKTGSNFDYINRAKKELENLKALQEVVEKETYYKVENIGQINSPEAEYAPYIYKNQLYFTSSRDAEKMHAATGTGFTNIHEYVFDGVEKFSGQSVPLSNAINTDGAHEASCILTKDGKTMIFARGNSGAKKGPQDVDLFKTTLQSDGKWSEPVMLAINDPAAWDACPALSLDEKTLYFASNREAEGALGNVDIYKATLDEKGEWSNPVNIGAPINTRGNDMYPSFNKDGKFYFASDGHPSLGSLDIFYVDPKESKIVNMGKPINTSYDDFGLVWKDSLEGYFASNRIDNGAKGDDDIYFVRNTFWDRRAKYYVDGTSFAKSKKNPKAILPNSIIYLLSCKGDTLKSIVSDTEGKFEFELKPDTCYYLAAHSDKYFAMPKSEWTPVKIATVPIKDLDIGDNSIKKKAEVMLVKKERIVIVRNILYDYDKWDIRPDAAVELDTMVMLMNANPEIQIELGSHTDERGSAEYNRVLAQKRAQAAVDYIIAHGISKDRIIAKGYGEDEPAIRNAKTEADHQTNRRTTFKVLNHFSDELEIKSGE | failed
14 | AGVVVPKYTPSTENPGGPGEEPGDGLIDPAEPLDRGFMHLKGRELKSLNSISITGLNDGEKVILSTLAGLAARVTGDQVYINEGGPSSVWLKQMQNKYGIPVNTYNALAPLVQHYVETGVIKGYIVYTPYSEGQSHSINVATSLCGLLRGIAVPESLVDKVKAMGVTTELMDVRSYDEKWLYENYKDQLDKSLAADMKPEIFHHLRDYITMTNAFAFYDYNARRDWSWRTSILKDLDKGAYCFGYYDLDEWGMVNNASQLGVSMLPTDQAANLATLSSIYDTTGLKQRPATKEVVTEENVHYVTFLVSDGDNIAFNLWGQQGYMDHDLHGQFPLGYTISPSLYDLAPAALRWYYENSKEGDYFVAGPSGSSYIFPSKMSDADLDDYLAKLNEYVDKSGLNICNILDQKIMDNPKVYNKYLAQPNIDAIFYTGYGEKGDGRIKFSDNGKPVIEQRSVLWEGIDGGSNRGEESTVISQINSRSANPHSADGYTFVFVHCWTKNQQSIKTVIDGLNDNVRVVPVDQFVQLVKQNLGPK | not failed
15 | MKRKYFPFSAILGQEDLKKALLLNAVNPRIGGVLVRGEKGTAKSTAVRALGALLAAARNGSGGEGEVVVTLPLNATEEMVAGGIDFQQTMKEGRRVFQPGLLAKAHKGILYVDEVNLLDDHLVDIVLDAASSGENRVEREGITLSHPSLFVLAGTMNPEEGELRPQLLDRFGLCVEVRGEADPALRVDLMLRREAFDREPEEFSERYRAEEERLGRTIADAQSLLPSVRIPSHLRGFISELCRNSNVAGHRADLVIEQAARANAALRGSREVSVEDVTKVAGFALVHRRRDPVPPPEQKPQEPERQEEQSRDEQSRQEKPEERGDEPQQPQEGDDRRDGNDDSGNEERSQPENRDAAEQQERPDNEGQDELFSIGQSFRVRSIATPKDRKMRRGSGKRSRSRVSQKQGRYTKSTMPRGNNDIALDATLRAAAPFQRHRENPNGMAVVLQNEDIREKIREKRLGNLLIFVVDASGSMGARGRMAASKGAVMSLLLDAYQKRDKLAMVSFRKNEAFVNLPVTSSIELAARMLKEMPVGGRTPFSAGLLKGYEIAQNYLRKEPGGRPLIILVTDGKANRAIGQGKPLDEVFTISEKISREERIRFLVVDTEEPGLVTFGLAKKIAGLLDAWYYRIDDLRADTLVSIVKTMMP | failed
16 | MQIYLSTLTELDYDKSLNSIEESFDDNPETSWQARAKVKHLRKSPCYNFELEVIAKNENNDVVGHVLLIEVEINSDDKTYYGLAIASLSVHPELRGQKLGRGLVQAVEERAKAQEYSTVVVDHCFDYFEKLGYQNAAEHDIKLESGDAPLLVKYLWDNLTDAPHGIVKFPEHFY | failed
17 | MCIAVIGGMDRLERHYRQEAARTGFELRVFSQSENNIATKLKRFDALVIFTNKVSHRVRNEAMSAAKLNGIPVFQYHSCGVCTLRDCLNCLVLPAGGGTKLEHHHHHH | failed
18 | MLHLLTLSSLGRDLFNIKMLIVILITIGLITLMTILTYLLEQQVHRRQNRYWTIGAHGAEALSVLISMILLRQIFITLNSGSIISWTYATVQLTILLFSLNTMRNLAVEIINLLMPLFIYGQAIWLGHSTQYLPVFLAMAIILISTVVYITHNYQELHATQWKYLLFQILYSGTWWGVIWSVHPFKLSHTLVIILAFVLYMWLIRLAVNRVQKFFNEVLTFDQQVNYDELTGIRNRASFDTHAREVFAAYQHHQMGPVTMVMFDIDHFKAFNDQYGHLAGDAVLRHVAHFVELELNQRSTHGQIFRYGGEEFVIIFRGISALEAGQIMRTIQRKLKTVPIKFNVQTLNVTVSIGISELQPTDQTFTDWFVRVDDYLYQSKQAGRDQTTVESQLLTD | failed
19 | SLRREMQEILPGLFLGPYSSAMKSKLPVLQKHGITHIICIRQNIEANFIKPNFQQLFRYLVLDIADNPVENIIRFFPMTKEFIDGSLQMGGKVLVHGNAGISRSAAFVIAYIMETFGMKYRDAFAYVQERRFCINPNAGFVHQLQEYEAIYLAK | not failed
